In publication PMC1331985 (Nucleic Acids Research, 2006):

B1: Est3p-K71A (natural protein, S. cerevisiae, UniProt Q03096 1-181, looked up)
chain: MPKVILESHSKPTDSVFLQPWIKALIEDNSEHDQYHPSGHVIPSLTKQDLALPHMSPTILTNPCHFAKITAFYNVCDYKVYASIRDSSHQILVEFSQECVSNFERTHNCRITSETTNCLMIIGDADLVYVTNSRAMSHFKICLSNISSKEIVPVLNVNQATIFDIDQVGSLSTFPFVYKYL
B2: Est3p-S87A (natural protein, S. cerevisiae, UniProt Q03096 1-181, looked up)
chain: MPKVILESHSKPTDSVFLQPWIKALIEDNSEHDQYHPSGHVIPSLTKQDLALPHMSPTILTNPCHFAKITKFYNVCDYKVYASIRDASHQILVEFSQECVSNFERTHNCRITSETTNCLMIIGDADLVYVTNSRAMSHFKICLSNISSKEIVPVLNVNQATIFDIDQVGSLSTFPFVYKYL
B3: Est3p-F72A (natural protein, S. cerevisiae, UniProt Q03096 1-181, looked up)
chain: MPKVILESHSKPTDSVFLQPWIKALIEDNSEHDQYHPSGHVIPSLTKQDLALPHMSPTILTNPCHFAKITKAYNVCDYKVYASIRDSSHQILVEFSQECVSNFERTHNCRITSETTNCLMIIGDADLVYVTNSRAMSHFKICLSNISSKEIVPVLNVNQATIFDIDQVGSLSTFPFVYKYL
B4: Est3p-E104A (natural protein, S. cerevisiae, UniProt Q03096 1-181, looked up)
chain: MPKVILESHSKPTDSVFLQPWIKALIEDNSEHDQYHPSGHVIPSLTKQDLALPHMSPTILTNPCHFAKITKFYNVCDYKVYASIRDSSHQILVEFSQECVSNFARTHNCRITSETTNCLMIIGDADLVYVTNSRAMSHFKICLSNISSKEIVPVLNVNQATIFDIDQVGSLSTFPFVYKYL
B5: Est3p-K3A (natural protein, S. cerevisiae, UniProt Q03096 1-181, looked up)
chain: MPAVILESHSKPTDSVFLQPWIKALIEDNSEHDQYHPSGHVIPSLTKQDLALPHMSPTILTNPCHFAKITKFYNVCDYKVYASIRDSSHQILVEFSQECVSNFERTHNCRITSETTNCLMIIGDADLVYVTNSRAMSHFKICLSNISSKEIVPVLNVNQATIFDIDQVGSLSTFPFVYKYL
B6: Est3p-T115A (natural protein, S. cerevisiae, UniProt Q03096 1-181, looked up)
chain: MPKVILESHSKPTDSVFLQPWIKALIEDNSEHDQYHPSGHVIPSLTKQDLALPHMSPTILTNPCHFAKITKFYNVCDYKVYASIRDSSHQILVEFSQECVSNFERTHNCRITSEATNCLMIIGDADLVYVTNSRAMSHFKICLSNISSKEIVPVLNVNQATIFDIDQVGSLSTFPFVYKYL

Biological target: the molecule itself
Assay: SEC

Binding result, binds:
B1
B2
B3
B4
B5
B6
